Data as given in the supplement of paper PMC9732359.
± gives the uncertainty stated by the source.

Assay: protein stability index of a GFP-peptide fusion (yeast GPS) (PSI 1-4); higher = more stable; sorted into four equal gates, so the index is relative within each strain
Procedure, shortened: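 The protein stability index of a peptide was calculated by multiplying its read frequency in each gate by that gate's number and adding the products. The peptides were tiled 17-residue stretches of yeast proteins, fused downstream of GFP on a Cherry-expressing plasmid and carried in yeast as a pooled library. Mid-log cultures in leucine-free medium were sorted into four equal gates by GFP/Cherry ratio, and each gate's plasmids were PCR-amplified and Illumina-sequenced.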

Sequence	protein stability index (doa10∆)	protein stability index (pdr5∆)	protein stability index (san1∆)	protein stability index (ubr1∆)
PLLARKQFVVDVLHPNR [RPS24A]	1.58 ± 0.14	1.83 ± 0.072	1.72 ± 0.12	1.62 ± 0.071
IIASASYDKTVKLWEED [YGL100W/SEH1]	3.3 ± 0.18	3.67 ± 0.25	3.22 ± 0.093	3.41 ± 0.12
SPYAAMLAAQDVAAKCK [RPS14A]	2.28 ± 0.05	1.82 ± 0.048	1.62 ± 0.067	1.88 ± 0.048
KSMITSEGEQKSAEGNN [YAR002W/NUP60]	3.2 ± 0.047	3.19 ± 0.045	3.25 ± 0.035	3.17 ± 0.041
LGNIASSFYINHASMDV [BRR2]	2.84 ± 0.12	2.67 ± 0.12	2.88 ± 0.1	3.27 ± 0.15
ARVLFDDMVEYEDGTPA [CYT1]	3.47 ± 0.17	3.09 ± 0.096	3.24 ± 0.085	3.48 ± 0.11
NLLTPQPTNFTTKRLWS [MCD1]	2.79 ± 0.074	2.79 ± 0.063	2.73 ± 0.064	2.85 ± 0.065
NYEDVGRFLRVPKEGLF [BRR2]	3.42 ± 0.076	3.5 ± 0.11	3.42 ± 0.078	3.49 ± 0.064
FIGRLPIMLRSKNCYLS [RPB2]	1.43 ± 0.072	1.58 ± 0.081	1.17 ± 0.14	1.19 ± 0.054
KALDRHEFFIANHDDQD [SRP68]	3.1 ± 0.058	2.98 ± 0.091	2.89 ± 0.057	3.17 ± 0.07
HFLQFSELAGDEELEAE [PRP8]	3.33 ± 0.15	3.11 ± 0.27	–	–
AQYFYSGAYSYPDFRHY [DIS3]	1.43 ± 0.056	1.43 ± 0.09	1.87 ± 0.16	1.56 ± 0.081
PGMPNMPGMPNMPGMPK [SRP54]	3.37 ± 0.15	3.22 ± 0.095	3.21 ± 0.25	3.3 ± 0.071
LNECLKTIQINNEKVVQ [YML031W/NDC1]	1.96 ± 0.12	2.27 ± 0.073	1.29 ± 0.16	1.11 ± 0.1
STGCVVGLSQPDAKIQV [YMR129W/POM152]	2.29 ± 0.15	2.47 ± 0.21	2.47 ± 0.063	2.42 ± 0.091
EEQLDALECRLASAIAS [CSN12]	–	2.02 ± 0.15	2.38 ± 0.12	1.81 ± 0.088
IIAELSFLKVDPDLGLD [YJL039C/NUP192]	3.35 ± 0.091	3.26 ± 0.086	3.23 ± 0.1	3 ± 0.095
FNTFWDEKGNEIKVGKQ [ARP9]	3.24 ± 0.099	2.53 ± 0.089	2.88 ± 0.089	2.52 ± 0.059
ESLYEPNLEPEDLFETI [PUP3]	3.27 ± 0.12	3.09 ± 0.13	2.99 ± 0.11	3.01 ± 0.078
MNKIFTIFKSGEIDFIK [YML103C/NUP188]	2.51 ± 0.091	2.62 ± 0.054	2.41 ± 0.075	2.59 ± 0.06
IDIINKLILHAIHIFES [YML103C/NUP188]	1.5 ± 0.053	1.56 ± 0.058	1.42 ± 0.065	1.38 ± 0.034
VRYEEKRELKQLLEKAP [BRR2]	1.86 ± 0.093	2.35 ± 0.084	1.89 ± 0.18	2.4 ± 0.12
SGTKSEVLTYVNYLISN [YJL039C/NUP192]	2.52 ± 0.053	2.5 ± 0.056	2.54 ± 0.041	2.58 ± 0.044
LNEKFQELRKKVNPNIM [SMC2]	–	2.61 ± 0.27	2.98 ± 0.2	2.81 ± 0.15
GELVLDIEVPDVNALKF [SNF12]	3.06 ± 0.22	3.55 ± 0.12	2.77 ± 0.077	3.15 ± 0.11

Sequence	protein stability index (doa10∆)	protein stability index (pdr5∆)	protein stability index (san1∆)	protein stability index (ubr1∆)
DIENKEEEYDETHETNI [YAR002W/NUP60]	3.34 ± 0.071	3.21 ± 0.087	3.42 ± 0.083	3.33 ± 0.064
RSQDVRSTDRDRVKVIE [CSL4]	3.01 ± 0.16	–	3.27 ± 0.12	2.97 ± 0.079
WGVNLPAHTVIIKGTDV [BRR2]	2.82 ± 0.086	2.79 ± 0.13	2.32 ± 0.083	2.58 ± 0.058
IRAHQTELTHHLLPRNE [QCR7]	2.99 ± 0.1	3.2 ± 0.072	3.02 ± 0.064	2.92 ± 0.065
IDADSLEDIYTSAHEAI [RPL5]	2.98 ± 0.097	3.02 ± 0.11	2.9 ± 0.1	3.13 ± 0.056
KAKVEEMNNIIAASRRH [RPL36A]	2.85 ± 0.084	3.25 ± 0.075	3.19 ± 0.068	3.13 ± 0.072
DGKEDVEKGTPLGKILL [SME1]	3.57 ± 0.071	3.44 ± 0.09	3.53 ± 0.053	3.56 ± 0.075
HYVVLDTNVVLQAIDLL [DIS3]	2.53 ± 0.093	2.49 ± 0.073	2.23 ± 0.1	2.39 ± 0.064
LWDVATGETYQRFVGHK [ASC1]	2.98 ± 0.19	3.42 ± 0.17	1.59 ± 0.17	3.4 ± 0.094
LVGRLRKCETQKQWDDI [YCS4]	2.21 ± 0.069	1.74 ± 0.057	1.53 ± 0.15	1.48 ± 0.072
AHRNGIKKPKTYKYPSL [RPL29]	3.42 ± 0.11	2.96 ± 0.15	3.19 ± 0.28	2.95 ± 0.1
NTIIRDGSKMLKRADYT [RPN14]	2.87 ± 0.096	2.36 ± 0.093	3.65 ± 0.039	2.2 ± 0.055
KPYSGKLLKVCLTMFED [ECM29]	2.18 ± 0.056	2.17 ± 0.058	2.67 ± 0.045	2.36 ± 0.058
SDNVSFEIQGVPPMKLA [YMR129W/POM152]	2.8 ± 0.11	3.18 ± 0.083	3.05 ± 0.062	2.86 ± 0.088
RGKNEIIQNAQRDAVTL [RPO21]	3.3 ± 0.067	2.99 ± 0.078	3.23 ± 0.064	3.04 ± 0.066
RETLVKTWEKVTLDFGN [SMC2]	1.77 ± 0.063	1.74 ± 0.14	1.83 ± 0.28	1.27 ± 0.12
LSQSSSYLETLTALGKE [MED2]	3.12 ± 0.097	3.04 ± 0.099	2.66 ± 0.084	2.44 ± 0.07
MYQMITMGGNAELELVD [SMC4]	2.81 ± 0.074	2.47 ± 0.1	2.6 ± 0.08	2.54 ± 0.072
ANDFQLTIVTCKQFPKL [SRB8]	1.83 ± 0.047	1.96 ± 0.041	1.82 ± 0.073	1.82 ± 0.034
GGFTNLTSQAPQTTQMF [YDL088C/ASM4]	3.35 ± 0.12	3.09 ± 0.091	3.38 ± 0.077	3.08 ± 0.068
TPVVLATPIPEEVQQAQ [RPS5]	2.55 ± 0.099	2.43 ± 0.16	3.1 ± 0.1	2.83 ± 0.13
VAARAEILRIHSRKMNL [RPT6]	2.59 ± 0.056	2.53 ± 0.054	2.5 ± 0.081	2.64 ± 0.068
YKVENVTLYWNNAKLLT [ESC2]	1.71 ± 0.059	1.99 ± 0.051	1.71 ± 0.076	2.19 ± 0.043
HNGRDKIQFHIHFADVA [RGR1]	1.68 ± 0.051	1.79 ± 0.049	1.43 ± 0.079	1.84 ± 0.043
EVFIGRVKDQDGRVNRF [YJR042W/NUP85]	3.44 ± 0.2	3.28 ± 0.28	3.5 ± 0.14	3.19 ± 0.17
